Test results reported in US20160208018A1 (JUNO THERAPEUTICS, published 2016).
Residue numbers refer to the chain shown, from its start. Names and notes keep the numbering of the source.

B1: Clone 366 scFv (scFv)
scFv: EVQLVESGGGLVQPGRSLRLSCTASGFTFGDYAMSWVRQAPGKGLEWVSSISGSGRSTDHADYVKGRFTISRDNSKNTVYLQMNRLRAEDTAVYYCAKVSNYEYYFDYWAQGTLVTVSSQSVLTQPPSVPGTPGQRVTITCSGSRFNIGSNTVNWYQQLPGTAPKLLIYSNNQRPSGVPDRFSGSKSGTSASLAISGLQSEDEADYYCAAWDDSLNGYVFGTGTKLTVL
notes: Printed without a linker
B2: Clone 83B scFv (scFv)
scFv: QVQLVQSGAEVKKPGASVKVSCKASGYTFTSYYMHWVRQAPGQGLEWMGIINPNGGSTSYAQKFQGRVTMTRDTSTSTVYMELSSLRSEDTAVYYCARDSSYDAFDIWGQGTMVTVSSGGGGSGGGGSGGGGSAIQLTQSPSTLSASVGDRVTITCQASQDISNYLNWYQQKPGKAPKLLINDASYLETGVPSRFSGSGSGTDFTLTISSLQPEDIATYYCQQYESLPYTFGQGTKLEIK
notes: De-glycosylation variant of clone 83 (S to N at VH position 53, Kabat)
B3: Clone 305 scFv (scFv)
scFv: EVQLVESGGGLVQPGRSLRLSCTASGFTFGDYAMSWVRQAPGKGLEWVSSISGSGRSTDHADYVKGRFTISRDNSKNTVYLQMNRLRAEDTAVYYCAKVSNYEYYFDYWAQGTLVTVSSQSVLTQPPSVSVAPGQTARITCGGNNIGSTSVHWFQQKPGQAPVLVVYDDSDRPSGIPERFSGSNSGNTATLTISRVEAGDEADYYCQVWDNDSDHRVFGGGTKLTVL
B4: Clone 298 scFv (scFv)
scFv: EVQLVESGGGLVQPGRSLRLSCTASGFTFGDYAMSWVRQAPGKGLEWVSSISGSGRSTDHADYVKGRFTISRDNSKNTVYLQMNRLRAEDTAVYYCAKVSNYEYYFDYWAQGTLVTVSSGGGGSGGGGSGGGGSEIVLTQSPSVSVAPGQTARITCGGSNIGSESVNWYQWKSGQVPVLVVSDTTDRPSGIPGRFTGTRSGTTATLTISGVEAGDEADYHCQVWDDTGDHPVFGGGTKLTVL
B5: Clone 350 scFv (scFv)
scFv: EVQLVESGGGLVQPGRSLRLSCTASGFTFGDYAMSWVRQAPGKGLEWVSSISGSGRSTDHADYVKGRFTISRDNSKNTVYLQMNRLRAEDTAVYYCAKVSNYEYYFDYWAQGTLVTVSSQPVLTQPHSVSESPGKTVTISCTRSSGSIASNYVQWYQQRPGSAPTTVIYEDNQRPSGVPDRFSGSIDSSSNSASLTISGLKTEDEADYYCQSYDSSNHVFGTGTKLTVL
B6: Clone V420 (VHH)
VHH: QVQLVESGGGLVQPGGSLRLSCAASGFTFSSYWMSWVRQAPGKGLEWVANIKQDGSEKYYVDSVKGRFTISRDNAKNSLYLQMNSLRAEDTAVYYCARVNGGEYYFDYWGQGTLVTVSS
notes: human VH-only single-domain antibody, no VL
B7: Clone V282 (VHH)
VHH: B6 VHH with Q1E, N100R, G102S
notes: as for B6
B8: Clone V163 (VHH)
VHH: QVQLVESGGGLVKPGGSLRLSCAASGFTFSNAWMSWVRQAPGKGLEWVGRIKSKTDGGTTDYAAPVKGRFTISRDDSKNTLYLQMNSLKTEDTAVYYCARQGDSSSWYVEVYYFDYWGQGTLVTVSS
notes: as for B6
B9: Clone V312 (VHH)
VHH: EVQLVESGGGLVKPRGSLRLSCAASGFTFSNAWMSWVRQAPGKGLEWVGRIKSKTDGGTTDYAAPVKGRFTISRDDSKNTLYLQMNSLKTEDTAVYYCARTSRGRFLEWLLFDYWGQGTLVTVSS
notes: as for B6
B10: Clone V331 (VHH)
VHH: QVQLQQWGAGLLKPSETLSLTCAVYGGSFSGYYWSWIRQPPGKGLEWIGKINHSGSTNYNPSLKSRVTISVDTSKNQFSLKLSSVTAADTAVYYCARGQIAAHVWGWFDPWGQGTLVTVSS
notes: as for B6
B11: Clone V397 (VHH)
VHH: QITLKESGGGLVQPGGSLRLSCAASGFTFSNAWMSWVRQAPGKGLEWVGRIKSKTDGGTTDYAAPLKGRFTISRDDSKNTLYLQMNSLKTEDTAVYYCARAKGLWFGESYYFDYWGQGTLVTVSS
notes: as for B6
B12: Clone V278 (VHH)
VHH: QITLKESGGGLVQPGGSLRLSCAASGFTFSSYAMSWVRQAPGKGLEWVSAISGSGGSTYYADSVKGRFTISRDNSKNTLYLQMNSLRAEDTAVYYCAKERSRWGDNWFDPWGQGTLVTVSS
notes: as for B6
B13: CAR containing Clone 83B scFv (VH-VL) (other)
chain: B2 scFv
notes: Chimeric antigen receptor expressed on primary human CD8+ T cells; tEGFR marker is split off by T2A; also called 83B CAR; not shown: Ig-derived hinge only spacer, human CD28-derived transmembrane domain, human 4-1BB-derived intracellular signaling domai
B14: CAR containing Clone 298 scFv (VH-VL) (other)
chain: B4 scFv
notes: Chimeric antigen receptor expressed on primary human CD8+ T cells; tEGFR marker is split off by T2A; also called 298 CAR; not shown: Ig-derived hinge only spacer, human CD28-derived transmembrane domain, human 4-1BB-derived intracellular signaling domai
B15: CAR containing Clone 48 scFv (VH-VL) (other)
chain: QVTLKESGGGLVKPGGSLRLSCAASGFTFSNAWMSWVRQAPGKGLEWVGRIKSKTDGGTTDYAAPVKGRFTISRDDSKNTLYLQMNSLKTEDTAVYYCARDFGRWSYYFDYWSQGTLVTVSSGGGGSGGGGSGGGGSQSVLTQPSSVSGTPGQRVTISCSGSSSNIGSNYVYWYQQLPGTAPKLLIYRNNQRPSGVPDRFSGSKSGTSASLAISGLRSEDEADYYCAAWDDSLSGVVFGGGTKLTVL
notes: Chimeric antigen receptor expressed on primary human CD8+ T cells; tEGFR marker is split off by T2A; also called 48 CAR; not shown: Ig-derived hinge only spacer, human CD28-derived transmembrane domain, human 4-1BB-derived intracellular signaling domai
B16: Clone V128 (VHH)
VHH: EVQLLESGGGVVQPGGSLRLSCAASGFTFDTFWMSWVRQAPGKGLEWVGRIKSKTDGGTTDYAAPVKGRFTISRDDSKNTLYLQMNSLKTEDTAVYYCARDFGRWSYYFDYWSQGTLVTVSS
notes: as for B6
B17: Clone V181 (VHH)
VHH: QITLKESGGGLVKPGRSLRLSCTASGFTFGDYAMSWFRQAPGKGLEWVGFIRSKAYGGTTEYAASVKGRFTISRDDSKSIAYLQMNSLKTEDTAVYYCAKDFEVREAHLSYFDYWGQGTLVTVSS
notes: as for B6

Molecular target: T1, Human ROR1 (receptor tyrosine kinase-like orphan receptor 1) (human, UniProt Q01973 30-937)
T1 construct: also called hROR1; K562/ROR1
T1 sequence (Q01973 30-937): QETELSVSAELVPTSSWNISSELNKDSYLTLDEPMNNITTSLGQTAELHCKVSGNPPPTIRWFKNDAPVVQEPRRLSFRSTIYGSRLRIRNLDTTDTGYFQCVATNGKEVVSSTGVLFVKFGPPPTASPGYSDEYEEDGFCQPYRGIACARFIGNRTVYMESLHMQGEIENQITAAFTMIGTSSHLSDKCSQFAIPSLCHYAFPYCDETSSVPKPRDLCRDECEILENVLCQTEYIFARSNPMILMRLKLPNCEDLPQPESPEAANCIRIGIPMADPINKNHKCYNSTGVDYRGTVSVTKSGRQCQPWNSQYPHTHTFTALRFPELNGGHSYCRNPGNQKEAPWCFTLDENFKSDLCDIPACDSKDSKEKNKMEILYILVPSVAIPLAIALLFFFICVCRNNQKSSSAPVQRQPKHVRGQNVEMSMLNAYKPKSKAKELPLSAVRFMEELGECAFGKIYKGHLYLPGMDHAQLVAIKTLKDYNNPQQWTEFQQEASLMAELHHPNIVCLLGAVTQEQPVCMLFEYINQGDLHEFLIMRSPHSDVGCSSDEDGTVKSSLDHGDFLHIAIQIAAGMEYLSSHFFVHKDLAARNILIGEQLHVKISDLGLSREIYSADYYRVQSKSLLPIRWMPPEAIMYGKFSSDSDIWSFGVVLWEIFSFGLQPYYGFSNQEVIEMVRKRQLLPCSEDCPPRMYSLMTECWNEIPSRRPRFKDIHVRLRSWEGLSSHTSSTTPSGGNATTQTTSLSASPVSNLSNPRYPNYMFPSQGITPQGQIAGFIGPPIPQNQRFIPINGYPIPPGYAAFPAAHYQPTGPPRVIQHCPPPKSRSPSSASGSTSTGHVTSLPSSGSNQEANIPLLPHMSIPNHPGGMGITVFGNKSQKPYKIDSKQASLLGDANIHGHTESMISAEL
Assay: flow cytometry on ROR1-expressing cells; predicted plateau relative to R12 scFv = 100%
Protocol: (§1) Additionally, percent (%) maximum (max) binding to ROR1-expressing cells and % max competition with the reference antibody (R12 scFv) were calculated. Percent max binding and competition values were calculated based on predicted plateaus (measured by Prism® using four parameter non-linear regression), relative to values for R12 scFv binding and inhibition, respectively, assigned as 100% in each study.
(§2) Assays also were performed to assess competition (measured as half maximal inhibitory concentration (IC₅₀)) of the clones with the R12 scFv reference antibody for binding to ROR1-expressing cells, as described in Example 1. Percent (%) max ROR1 and % max competition, as compared to the R12 scFv reference antibody, were determined as described in Example 1.

% Max Binding [%]	Binder
104	B1
140	B2
86	B3
96	B4
137	B5

Molecular target: T1, Human ROR1 (receptor tyrosine …)
Assay: as above
Remark: another data set of the same source
Protocol: as §1

% Max Binding [%]	Binder
74	B6
64	B7
122	B8
29	B9
70	B10
18	B11
22	B12

Molecular target: T1, Human ROR1 (receptor tyrosine …)
Assay: flow cytometry on ROR1-expressing K562 and CHOK1 cells (n = 1)

EC50 [nM]	Binder
8	B6
13.1	B7
92.9	B8
23.7	B9
18.8	B10
49.7	B11
31.5	B12

Molecular target: T1, Human ROR1 (receptor tyrosine …)
Assay: flow cytometry competition, competitor R12 scFv on ROR1-expressing cells (n = 1)
Protocol: (§3) Assays also were performed to assess competition of the clones with the reference antibody (R12 scFv), for binding to ROR1-expressing cells. VH clones were titrated against 2 nM Myc-R12 on ROR1/K562 cells and competition assessed with an anti-Myc-Alexa647 secondary antibody, and the half maximal inhibitory concentration (IC₅₀) determined for respective clones.
as §2

IC50 [nM]	Binder
53.9	B1
15	B2
62.5	B3
41.3	B4
49.1	B5

Molecular target: T2, Mouse ROR1 (mouse, UniProt Q9Z139 30-937)
T2 construct: also called mROR1; K562/mouse ROR1
T2 sequence (Q9Z139 30-937): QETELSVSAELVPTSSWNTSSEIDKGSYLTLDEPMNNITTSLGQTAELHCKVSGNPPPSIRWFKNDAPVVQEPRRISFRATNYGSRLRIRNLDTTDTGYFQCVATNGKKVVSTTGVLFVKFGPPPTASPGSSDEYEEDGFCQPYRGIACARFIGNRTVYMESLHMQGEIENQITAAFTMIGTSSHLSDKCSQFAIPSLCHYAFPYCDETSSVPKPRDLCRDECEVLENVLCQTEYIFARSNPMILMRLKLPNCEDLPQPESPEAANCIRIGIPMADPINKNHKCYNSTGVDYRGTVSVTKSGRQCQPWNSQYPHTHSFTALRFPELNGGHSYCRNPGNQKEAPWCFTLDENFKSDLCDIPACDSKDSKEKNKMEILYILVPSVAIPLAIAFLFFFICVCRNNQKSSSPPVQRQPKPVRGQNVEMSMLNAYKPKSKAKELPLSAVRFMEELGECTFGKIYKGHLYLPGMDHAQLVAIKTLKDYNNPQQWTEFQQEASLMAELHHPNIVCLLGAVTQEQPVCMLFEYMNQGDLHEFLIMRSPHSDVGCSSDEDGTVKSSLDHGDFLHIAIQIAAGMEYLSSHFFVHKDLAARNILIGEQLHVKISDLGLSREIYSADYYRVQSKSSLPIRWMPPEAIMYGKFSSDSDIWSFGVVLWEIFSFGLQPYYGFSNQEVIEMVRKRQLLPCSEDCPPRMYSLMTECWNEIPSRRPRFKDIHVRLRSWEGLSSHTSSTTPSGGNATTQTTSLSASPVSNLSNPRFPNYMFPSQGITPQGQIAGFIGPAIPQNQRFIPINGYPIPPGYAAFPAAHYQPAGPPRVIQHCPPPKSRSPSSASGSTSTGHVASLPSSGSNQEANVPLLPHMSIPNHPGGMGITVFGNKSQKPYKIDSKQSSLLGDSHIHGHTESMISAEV
Assay: inferred from IFN-gamma release of CAR T cells on K562/mouse ROR1 cells
Protocol: Cytokine release was assessed following incubation of the CAR-expressing cells with either K562/human ROR1 (hROR1) or K562/mouse ROR1 (mROR1) antigen-expressing cells. Transduced CD8+ T cells were co-cultured with antigen-expressing cells at a single effector to target (E:T). The co-cultured cells were incubated for about 24 hours, and then supernatants were collected for measurement of IFN-γ using a cytokine immunoassay.

binding result	Binder
binds	B13
binds	B14
binds	B15

Molecular target: T1, Human ROR1 (receptor tyrosine …)
Assay: flow cytometry on ROR1-expressing K562 and CHOK1 cells (n = 1)
Remark: another data set of the same source

EC50 [nM]	Binder
10	B1
6.4	B2
5.1	B3
5.9	B4
22.9	B5

Molecular target: T1, Human ROR1 (receptor tyrosine …)
Assay: flow cytometry competition, competitor 2 nM Myc-R12 scFv on ROR1/K562 cells (n = 1)
Protocol: as §3

IC50 [nM]	Binder
71.5	B6
94.3	B7
> 200	B16
154	B8
5.6	B9
32.4	B10
25.2	B11
> 200	B17

Molecular target: T1, Human ROR1 (receptor tyrosine …)
Assay: competition with Myc-R12 scFv on ROR1/K562 cells; predicted plateau relative to R12 scFv = 100%
Protocol: as §3, §1

% Max Competition [%]	Binder
58	B6
48	B7
58	B8
19	B9
31	B10
18	B11
76	B17

Molecular target: T1, Human ROR1 (receptor tyrosine …)
Assay: competition with R12 scFv on ROR1-expressing cells; predicted plateau relative to R12 scFv = 100%
Protocol: as §1, §2

% Max Competition [%]	Binder
71	B1
103	B2
97	B3
88	B4
80	B5
